What follows are sequences tested on Escherichia coli TOP10 (assay: shrunken log2 fold change of peptide-encoding DNA abundance (4.5 h post-induction vs induction); higher = less antimicrobial activity (less host growth inhibition)). Conditions: time post-induction: 4.5 h; library: site-saturation at positions 5, 18, 19, 20.
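Further: peptides expressed intracellularly from a pBAD plasmid library in pooled LB shake-flask culture, induced with 0.3% L-arabinose, DNA abundance read by NGS, three biological replicates, DESeq2 with apeglm shrinkage.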

Row | Sequence | shrunken log2 fold change
1 | RRIRVRPPRLPRPRPRPWSEPRP | -0.00215
2 | RRIRRRPPRLPRPRPRPVHHPRP | -0.468
3 | RRIRERPPRLPRPRPRPMYQPRP | -0.0801
4 | RRIRWRPPRLPRPRPRPCYGPRP | 0.22
5 | RRIRWRPPRLPRPRPRPLFEPRP | 0.25
6 | RRIRMRPPRLPRPRPRPGIGPRP | 0.638
7 | RRIRGRPPRLPRPRPRPNEAPRP | 1.22
8 | RRIRGRPPRLPRPRPRPRAHPRP | 0.857
9 | RRIRFRPPRLPRPRPRPYEFPRP | -0.245
10 | RRIRWRPPRLPRPRPRPEHRPRP | 0.231
11 | RRIRERPPRLPRPRPRPDPFPRP | -0.102
12 | RRIRTRPPRLPRPRPRPYSWPRP | -0.118
13 | RRIRYRPPRLPRPRPRPAELPRP | -0.187
14 | RRIRMRPPRLPRPRPRPEVVPRP | 2.97
15 | RRIRCRPPRLPRPRPRPHYMPRP | -0.308
16 | RRIRSRPPRLPRPRPRPLKNPRP | -0.347
17 | RRIRVRPPRLPRPRPRPMIKPRP | -0.156
18 | RRIRNRPPRLPRPRPRPNGWPRP | -0.0113
19 | RRIRKRPPRLPRPRPRPTPTPRP | 0.831
20 | RRIRMRPPRLPRPRPRPCAAPRP | 2.26
21 | RRIRKRPPRLPRPRPRPRDYPRP | 0.0161
22 | RRIRDRPPRLPRPRPRPRIYPRP | -0.173
23 | RRIRARPPRLPRPRPRPCAHPRP | -0.0288
24 | RRIRHRPPRLPRPRPRPGRWPRP | 0.413
25 | RRIRHRPPRLPRPRPRPPQWPRP | 0.0657

Row | Sequence | shrunken log2 fold change
26 | RRIRMRPPRLPRPRPRPDTWPRP | 0.34
27 | RRIRKRPPRLPRPRPRPFVFPRP | 0.277
28 | RRIRARPPRLPRPRPRPPEEPRP | 1.73
29 | RRIRPRPPRLPRPRPRPNEWPRP | -0.203
30 | RRIRKRPPRLPRPRPRPQHEPRP | 0.198
31 | RRIRLRPPRLPRPRPRPCKFPRP | -0.463
32 | RRIRVRPPRLPRPRPRPEQDPRP | 0.173
33 | RRIRWRPPRLPRPRPRPNRFPRP | -0.0274
34 | RRIRMRPPRLPRPRPRPHYCPRP | -0.116
35 | RRIRRRPPRLPRPRPRPCPWPRP | -0.0433
36 | RRIRPRPPRLPRPRPRPCFWPRP | 0.179
37 | RRIRERPPRLPRPRPRPPNQPRP | -0.118
38 | RRIRRRPPRLPRPRPRPCIFPRP | -0.0526
39 | RRIRFRPPRLPRPRPRPKRCPRP | 0.383
40 | RRIRVRPPRLPRPRPRPRPSPRP | 0.382
41 | RRIRSRPPRLPRPRPRPEYIPRP | -0.0603
42 | RRIRGRPPRLPRPRPRPCSIPRP | 0.0747
43 | RRIRPRPPRLPRPRPRPSWKPRP | 0.105
44 | RRIRPRPPRLPRPRPRPQGKPRP | -0.198
45 | RRIRPRPPRLPRPRPRPPPIPRP | 0.374
46 | RRIRHRPPRLPRPRPRPTVYPRP | -0.219
47 | RRIRLRPPRLPRPRPRPWDRPRP | -0.0145
48 | RRIRIRPPRLPRPRPRPGLLPRP | -0.0591
49 | RRIRARPPRLPRPRPRPGWFPRP | 0.524
50 | RRIRNRPPRLPRPRPRPPPKPRP | 1.5

Row | Sequence | shrunken log2 fold change
51 | RRIRYRPPRLPRPRPRPPPPPRP | 1.2
52 | RRIRDRPPRLPRPRPRPPHIPRP | -0.213
53 | RRIRWRPPRLPRPRPRPDNSPRP | -0.0707
54 | RRIRKRPPRLPRPRPRPCRNPRP | -0.0611
55 | RRIRMRPPRLPRPRPRPIIRPRP | 0.0027
56 | RRIRVRPPRLPRPRPRPADGPRP | 0.000767
57 | RRIRGRPPRLPRPRPRPGPNPRP | 0.941
58 | RRIRWRPPRLPRPRPRPTKWPRP | -0.126
59 | RRIRVRPPRLPRPRPRPRLFPRP | 0.447
60 | RRIRRRPPRLPRPRPRPYMDPRP | -0.138
61 | RRIRTRPPRLPRPRPRPQHVPRP | -0.0575
62 | RRIRYRPPRLPRPRPRPKICPRP | -0.0342
63 | RRIRNRPPRLPRPRPRPGHCPRP | -0.062
64 | RRIRMRPPRLPRPRPRPPNKPRP | 0.604
65 | RRIRYRPPRLPRPRPRPANRPRP | 0.0126
66 | RRIRDRPPRLPRPRPRPIPHPRP | -0.051
67 | RRIRCRPPRLPRPRPRPIDYPRP | -0.651
68 | RRIRPRPPRLPRPRPRPTIVPRP | 0.121
69 | RRIRYRPPRLPRPRPRPMPNPRP | -0.0961
70 | RRIRPRPPRLPRPRPRPPGHPRP | 0.371
71 | RRIRFRPPRLPRPRPRPHCLPRP | -0.377
72 | RRIRHRPPRLPRPRPRPSSEPRP | -0.102
73 | RRIRLRPPRLPRPRPRPAIMPRP | -0.16
74 | RRIRMRPPRLPRPRPRPEGRPRP | 3.21
75 | RRIRYRPPRLPRPRPRPQGEPRP | -0.325

From the supplement of paper PMC9112550, “Optimization of the antimicrobial peptide Bac7 by deep mutational scanning” (BMC Biology, 2022)
